According to patent US20120027773A1 (AVEO PHARMACEUTICALS, published 2012):
Substitutions are numbered along the chain they refer to. Numbers in names are those of the source.

B1: Sh07F01-2 (antibody, human IgG1, kappa, V domains shown)
VH: EVKLLESGGGLVQPGGSLKLSCAASGFDFSRHWMSWVRLAPGKGLEWIAEINPDSRTINYTPSLKEKFIISRDNAKNSLFLQMNRVRSEDTALYYCARRVRIHYYGAMDSWGQGTSVTVSS
VL: DIVLTQSQKIVSTSVGARVSVTCKASQNVGSSLVWYQQKPGQSPKTLIYSASFRYSGVPDRFTGSGSGTDFTLTISNVQSEDLADYFCQQYNNYPLTFGAGTKLELKR
notes: also called Chimeric 07F01 C102S
B2: Sh07F01-62 (antibody, human IgG1, kappa, V domains shown)
VH: EVQLVESGGGLVQPGGSLRLSCAASGFTFSRHWMSWVRQAPGKGLEWVSEINPDSRTINYAPSVKGRFTISRDNAKNSLYLQMNSLRAEDTAVYYCARRVRIHYYGAMDSWGQGTTVTVSS
VL: DIQLTQSQSFVSTSVGDRVTVTCRASQNVGSSLVWYQQKPGKSPKTLIYSASFLYSGVPSRFSGSGSGTEFTLTISSVQPEDFADYFCQQYNNYPLTFGGGTKVEIKR
notes: Humanized, human IgG1/kappa: Sh07F01 Hv3-48 D28T T60A L63V E65G IgG1 + HE L 07F01 Kv1-9 Kappa
B3: Sh07F01-43 (antibody, human IgG1, kappa, V domains shown)
VH: B2 VH with T28D, A61T, V64L, G66E
VL: B2 VL
notes: Humanized, human IgG1/kappa: Sh07F01 Hv3-48 IgG1 + HE L 07F01 Kv1-9 Kappa
B4: Sh07F01-69 (antibody, human IgG1, kappa, V domains shown)
VH: B2 VH with T28D, A61T, V64L, G66E
VL: B2 VL with Q8P, V11L, T13A, V21I, S43A, V78L, D85T, F87Y
notes: Humanized, human IgG1/kappa: Sh07F01 Hv3-48 IgG1 + Sh07F01 Kv1-9 F1 Kappa
B5: Sh07F01-83 (antibody, human IgG1, kappa, V domains shown)
VH: B2 VH
VL: B2 VL with Q8P, V11L, T13A, V21I, S43A, V78L, D85T, F87Y
notes: Humanized, human IgG1/kappa: Sh07F01 Hv3-48 D28T T60A L63V E65G IgG1 + Sh07F01 Kv1-9 F1 Kappa
B6: Sh29B06-9 (antibody, human IgG1, kappa, V domains shown)
VH: EVQLQESGPSLVKPSQTLSLTCSVTGDSITSGYWNWIRKFPGNKLEYMGYISYSGKTYYNPSLKSRISITRDTSKNHYYLQLISVTAEDTATYYCARSKYDYAMDYWGQGTSVTVSS
VL: DIVMTQSPLSLPVTPGEPASISCRASEIVDNFGISFMNWYLQKPGQSPQLLIYAASNQGSGVPDRFSGSGSGTDFTLKISRVEAEDVGVYYCQQSKEVPPTFGGGTKVEIKR
notes: Chimeric 29B06 Heavy IgG1 + Sh29B06 Kv2-28 Kappa
B7: Sh29B06-78 (antibody, human IgG1, kappa, V domains shown)
VH: QVQLQESGPGLVKPSETLSLTCTVSGGSISSGYWNWIRKPPGKKLEYIGYISYSGKTYYNPSLKSRVTISRDTSKNQFSLKLSSVTAADTAVYYCARSKYDYAMDYWGQGTLVTVSS
VL: B6 VL
notes: Humanized, human IgG1/kappa: Hu29B06 Hv4-59 D27G T30S M48I I67V Y78F IgG1 + Sh29B06 Kv2-28 Kappa
B8: Sh29B06-23 (antibody, human IgG1, kappa, V domains shown)
VH: B7 VH with G27D, S30T, I48M, V67I, F78Y
VL: B6 VL
notes: Humanized, human IgG1/kappa: Hu29B06 Hv4-59 IgG1 (CDR graft with back mutations) + Sh29B06 Kv2-28 Kappa
B9: RON8 (antibody, V domains shown)
VH: EVQLVESGGGLVQPGGSLRLSCAASGFTFSSYLMTWVRQAPGKGLEWVANIKQDGSEKYYVDSVKGRFTISRDNAKNSLNLQMNSLRAEDTAVYYCTRDGYSSGRHYGMDVWGQGTTVIVSS
VL: EIVLTQSPATLSLSPGERATLSCRASQSVSRYLAWYQQKPGQAPRLLIYDASNRATGIPARFSGSGSGTDFTLTISSLEPEDFAVYYCQQRSNWPRTFGQGTKVEIKR

Legend:
[1] = biological target: T1, recombinant human RON SEMA and PSI domains (human, UniProt Q04912 25-571); experiment: SPR, purified Ab captured on anti-human IgG Fc, 25 C
T1 construct: domain: SEMA+PSI; Commercial protein (R&D Systems); also called rhRON SEMA+PSI; hRON SEMA+PSI

[2] = biological target: T1, recombinant human RON SEMA and PSI …; experiment: SPR, Ab captured on anti-human IgG Fc, 37 C, screening
Procedure: (§1) Goat anti-human IgG Fc (Jackson ImmunoResearch, Catalog No. 109-005-098) was immobilized on carboxymethylated dextran CM4 sensor chips (Biacore) by amine coupling (Biacore) using a standard coupling protocol according to the vendor's instructions. The analyses were performed at 37° C. using PBS (Invitrogen) containing 0.05% surfactant P20 (Biacore) as running buffer.
(§2) The antibodies were captured in individual flow cells at a flow rate of 60 μl/minute. Injection time was varied for each antibody to yield an Rₘₐₓ between 30 and 60 RU. Buffer or rhRON SEMA+PSI diluted in running buffer was injected sequentially over a reference surface (no antibody captured) and the active surface (antibody to be tested) for 300 seconds at 60 μl/minute. The dissociation phase was monitored for up to 1200 seconds. The surface was then regenerated with two 60 second injections of Glycine pH 2.25 (made from Glycine pH 2.0 (Biacore) and pH 2.5 (Biacore)) at 60 μl/minute. For the initial screening, only one or two concentrations of rhRON SEMA+PSI were tested, typically 10.0 and 2.5 nM (results are summarized in Table 20).
Kinetic parameters were determined using the kinetic function of the BIAevaluation software (Biacore) with double reference subtraction. Kinetic parameters for each antibody, kₐ (association rate constant), kd (dissociation rate constant) and KD (equilibrium dissociation constant) were determined. Certain monoclonal antibodies were screened using cell culture media supernatant containing secreted antibody, and kinetic values of the monoclonal antibodies on rhRON SEMA+PSI at 37° C. are summarized in Table 20.

[3] = biological target: T1, recombinant human RON SEMA and PSI …; experiment: SPR, purified Ab captured on anti-human IgG Fc, 37 C
Procedure: as §1, §2
The binding affinities and kinetics of certain purified monoclonal antibodies were also determined. To further characterize certain antibodies, the surface plasmon resonance experiments described above were conducted using concentrations of rhRON SEMA+PSI between 0.3125 nM and 10.0 nM (a 2-fold serial dilution).

[4] = biological target: T1, recombinant human RON SEMA and PSI …; experiment: SPR, Ab captured on anti-human IgG Fc, 37 C
[5] = biological target: T2, human wild-type RON (cell surface) (human, UniProt Q04912 25-1400); experiment: FACS titration on PC3 cells, 4 C
T2 construct: whole, on cells; also called Human RON; wt RON
Procedure: (§3) Binding to cell surface human wild-type RON and the delta 160 RON variant by antibodies 07F01, Sh07F01-62, 29B06, and Sh29B06-78 was measured at 4° C., using Fluorescence Activated Cell Sorting (FACS). PC3 cells expressing the human wild-type RON, and HT29 cells expressing the delta 160 variant, were harvested using cell dissociation buffer (Invitrogen), washed twice with FACS buffer (PBS with 0.5% BSA), and treated 10 minutes with Cyto Q Antibody diluent and FC receptor block (Innovex Biosciences, Richmond, Calif.). Purified antibodies were diluted in FACS buffer over a concentration range from 0.01 nM to 25 nM. Cells were incubated with 100 μl of antibody for one hour, washed with FACS buffer three times, and incubated for 45 minutes with goat anti-mouse PE-conjugated antibody (Jackson ImmunoResearch Laboratories, West Grove, Pa.) or donkey anti-human PE-conjugated antibody (Jackson ImmunoResearch Laboratories, West Grove, Pa.). Cells were washed three times with FACS buffer, resuspended in 300 μl of FACS buffer, and analyzed using a Beckman Coulter Cytomics FC 500 FACS instrument. All four antibodies were compared in the same experiment.

[6] = biological target: T1, recombinant human RON SEMA and PSI …; experiment: SPR, Ab captured on anti-human IgG Fc, 25 C
[7] = biological target: T3, delta 160 RON variant (cell surface) (human, UniProt Q04912 25-1400); experiment: FACS titration on HT29 cells, 4 C
T3 construct: whole, on cells; Splice variant; also called delta 160 variant
Procedure: as §3

Binder | Kd [1] [pM] | koff [1] [s⁻¹] | kon [1] [M⁻¹ s⁻¹] | Kd [2] [pM] | koff [2] [s⁻¹] | kon [2] [M⁻¹ s⁻¹] | Kd [3] [pM] | koff [3] [s⁻¹] | kon [3] [M⁻¹ s⁻¹] | Kd [4] [pM] | koff [4] [s⁻¹] | kon [4] [M⁻¹ s⁻¹] | Kd [5] [pM] | Kd [6] [pM] | koff [6] [s⁻¹] | kon [6] [M⁻¹ s⁻¹] | Kd [7] [pM]
B1 | 82 | 9.8e-05 | 1.2e+06 | 380 | 0.00073 | 2e+06 | 310 | 0.00053 | 1.7e+06 | – | – | – | – | – | – | – | –
B2 | 85 | 0.00016 | 1.8e+06 | 360 | 0.0014 | 3.9e+06 | 250 | 0.00069 | 2.8e+06 | 250 | 0.00069 | 2.8e+06 | 43 | 85 | 0.00016 | 1.8e+06 | 118
B3 | 90 | 0.00011 | 1.2e+06 | – | – | – | 300 | 0.00056 | 1.8e+06 | – | – | – | – | – | – | – | –
B4 | 120 | 0.00014 | 1.1e+06 | 560 | 0.0012 | 2.3e+06 | 300 | 0.00078 | 2.5e+06 | – | – | – | – | – | – | – | –
B5 | 110 | 0.00018 | 1.6e+06 | 540 | 0.0014 | 2.6e+06 | 240 | 0.00079 | 3.2e+06 | – | – | – | – | – | – | – | –
B6 | – | – | – | 260 | 0.00022 | 870000 | – | – | – | – | – | – | – | – | – | – | –
B7 | 52 | 3.9e-05 | 750000 | – | – | – | 110 | 0.00011 | 1e+06 | 110 | 0.0001 | 960000 | 90 | 48 | 3.1e-05 | 680000 | 239
B8 | 140 | 9.5e-05 | 670000 | 640 | 0.00048 | 780000 | 460 | 0.00033 | 730000 | – | – | – | – | – | – | – | –
B9 | – | – | – | – | – | – | – | – | – | 920 | 0.0025 | 7e+06 | – | 670 | 0.00068 | 1.2e+06 | –
